Measured values as given in patent US20250163162A1 (SYNTHEKINE, published 2025).

B1: DR442(DR236-DR232) (bispecific antibody)
chain: QVQLQESGGGSVQAGGSLRLSCAASRFTYSSYCMGWFRQAPGKEREGVASIDSDGSTSYTDSVKGRFTISKDNAKNTLYLQMNSLKPEDTAMYYCALDLMSTVVPGFCGFLLSAGMDYWGKGTQVTVSSGGGSQVQLQESGGGSVQAGGSLRLSCVASGYTSCMGWFRQAPGKEREAVATIYTRGRSIYYADSVKGRFTISQDNAKNTLYLQMNSLKPEDIAMYSCAAGGYSWSAGCEFNYWGQGTQVTVSSASHHHHHH
notes: Anti-hIL10Ra/hIL2Rg dual VHH with ASH6 handle; also called F7
B2: DR471(DR241-DR231) (bispecific antibody)
chain: QVQLQESGGGSVQAGGSLRLSCAASGYSNCSYDMTWYRQAPGKEREFVSAIHSDGSTRYADSVKGRFFISQDNAKNTVYLQMNSLKPEDTAMYYCKTDPLHCRAHGGSWYSVRANYWGQGTQVTVSSGGGSQVQLQESGGGSVQAGGSLRLSCTASGFTFDDREMNWYRQAPGNECELVSTISSDGSTYYADSVKGRFTISQDNAKNTVYLQMDSVKPEDTAVYYCAADFMIAIQAPGAGCWGQGTQVTVSSASHHHHHH
notes: Anti-hIL10Ra/hIL2Rg dual VHH with ASH6 handle; also called G3

Experiments:
[1] = target: T1, hIL2Rg-Fc (SinoBiological cat#10555) (human, UniProt P31785 23-254, limits assumed); experiment: SPR (Biacore T200), Fc-fused ligand captured on chip, dual VHH as analyte, 1:1 Langmuir fit
T1 construct: Bought Fc fusion (SinoBiological cat#10555); P31785 is printed for hCD132 in the background; also called human IL2Rg-Fc; not shown: Fc of the bought fusion protein
T1 sequence (looked up): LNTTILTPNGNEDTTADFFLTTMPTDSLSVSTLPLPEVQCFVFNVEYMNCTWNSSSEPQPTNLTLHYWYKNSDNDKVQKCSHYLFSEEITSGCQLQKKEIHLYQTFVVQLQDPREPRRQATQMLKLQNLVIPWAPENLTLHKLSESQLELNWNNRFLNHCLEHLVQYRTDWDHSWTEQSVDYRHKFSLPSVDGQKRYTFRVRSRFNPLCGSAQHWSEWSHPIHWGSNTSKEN
Experimental: (§1) All experiments were conducted in 10 mM Hepes, 150 mM NaCl, 0.05% (v/v) Polysorbate 20 (PS20) and 3 mM EDTA (HBS-EP+ buffer) on a Biacore T200 instrument equipped with Protein A or CAP biotin chips (Cytiva). For experiments on Protein A chips, Fc-fused ligands were flowed at 5 μl/min for variable time ranging from 18 to 300 seconds, reaching the capture loads listed in the tables below. Following ligand capture, injections of a 2-fold dilution series of analyte typically comprising at least five concentrations between 1 μM and 1 nM were performed in either high performance or single cycle kinetics mode. Surface regeneration was achieved by flowing 10 mM glycine-HCl, pH 1.5 (60 seconds, […]). Buffer-subtracted sensograms were processed with Biacore T200 Evaluation Software and globally fit with a 1:1 Langmuir binding model (bulk shift set to zero) to extract kinetics and affinity constants (kₐ, kd, KD). RMAX<100 RU indicates surface density compatible with kinetics analysis. Experiments on CAP chips were performed as described above with an additional capture step of Biotin CAPture reagent (10 seconds, 40 uL/min) performed prior to capture of biotinylated ligands. Calculated Rmax were generated using the equation Rmax=Load (RU) x valency of ligand x (Molecular weight of analyte/Molecular weight of ligand. Surface activity was defined as the ratio experimental/calculated Rmax. The results of these experiments are provided in below for sample information and experimental results.

[2] = target: T2, cIL2Rg-Fc (lot#P210115SV5) (cynomolgus, UniProt A0A2K5VGJ6 23-262); experiment: as above
T2 construct: Named only by lot number; also called cynomolgus IL2Rg-Fc; not shown: Fc of the fusion protein
T2 sequence: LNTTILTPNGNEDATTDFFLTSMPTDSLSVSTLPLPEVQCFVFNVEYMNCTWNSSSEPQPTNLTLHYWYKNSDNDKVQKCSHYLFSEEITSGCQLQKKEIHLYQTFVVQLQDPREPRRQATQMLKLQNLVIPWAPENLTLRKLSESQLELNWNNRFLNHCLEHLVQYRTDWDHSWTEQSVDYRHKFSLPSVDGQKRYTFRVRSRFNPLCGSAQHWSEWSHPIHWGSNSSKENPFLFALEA
Experimental: as §1

[3] = target: T1, hIL2Rg-Fc (SinoBiological cat#10555); experiment: SPR (Biacore T200); ratio experimental/calculated Rmax
[4] = target: T2, cIL2Rg-Fc (lot#P210115SV5); experiment: as above

Binder	Kd [1]	koff [1]	kon [1]	Kd [2]	koff [2]	kon [2]	Surface Activity [3]	Surface Activity [4]
B1	21.5 nM	0.042 s⁻¹	2e+06 M⁻¹ s⁻¹	41.3 nM	0.0033 s⁻¹	79000 M⁻¹ s⁻¹	5%	7%
B2	16.6 nM	0.0057 s⁻¹	340000 M⁻¹ s⁻¹	13.4 nM	0.0048 s⁻¹	360000 M⁻¹ s⁻¹	5%	1%
